{"source": "paper PMC6754442", "about": "“Structure of Csx1-cOA4 complex reveals the basis of RNA decay in Type III-B CRISPR-Cas” (Nature Communications, 2019)", "key": {"[1]": {"target": "Sulfolobus islandicus Csx1 (Sulfolobus islandicus)", "test": "SEC-MALS; Superdex 200 Increase 10/300 GL, room temperature, 20 mM Tris pH 8.0, 300 mM NaCl; 50 ul injected at 1.9 mg/ml"}, "[2]": {"target": "Sulfolobus islandicus Csx1 I383A/L390D/R391A mutant (Sulfolobus islandicus)", "test": "SEC-MALS; Superdex 200 Increase 10/300 GL, room temperature, 20 mM Tris pH 8.0, 300 mM NaCl; 50 ul injected at 1.9 mg/ml"}, "[3]": {"target": "T1, SisCsx1 (Saccharolobus islandicus, UniProt F0NE21)", "T1 construct": "gene SiRe_0884; full-length His-tagged, expressed from pSe-Csx1 in S. islandicus delta-csx1 delta-alpha; 300 kDa hexamer (trimer of dimers); CARF-HTH-HEPN; cOA4 site between two CARF domains; residues printed up to A454", "T1 sequence (F0NE21 1-454)": "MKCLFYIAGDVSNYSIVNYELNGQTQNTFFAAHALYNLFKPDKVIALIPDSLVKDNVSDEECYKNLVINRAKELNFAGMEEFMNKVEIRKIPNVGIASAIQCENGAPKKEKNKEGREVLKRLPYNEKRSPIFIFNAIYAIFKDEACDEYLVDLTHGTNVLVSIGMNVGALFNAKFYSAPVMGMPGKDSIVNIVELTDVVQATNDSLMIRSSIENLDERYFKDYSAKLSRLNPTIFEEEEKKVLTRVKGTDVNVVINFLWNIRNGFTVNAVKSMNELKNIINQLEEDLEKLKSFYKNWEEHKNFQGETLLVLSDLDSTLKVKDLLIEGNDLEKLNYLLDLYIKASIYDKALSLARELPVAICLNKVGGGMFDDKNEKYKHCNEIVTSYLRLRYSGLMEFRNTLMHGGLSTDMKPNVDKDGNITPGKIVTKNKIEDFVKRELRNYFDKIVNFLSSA", "test": "native gel shift with […]-labelled cOA4", "assay_type": "binding"}, "[4]": {"target": "T1, SisCsx1", "test": "fluorescent dark-RNA cleavage (activation dose response)", "assay_type": "biochemical", "conditions": "1-128 nM cOA4, 34 nM SisCsx1, 0.2 µM dark-RNA, 70 °C, 3 min; allosteric activator"}}}
{"compound": "Sulfolobus islandicus Csx1 (enzyme)", "values": [{"measurement": "stoichiometry N", "setting": "[1]", "value": 6}]}
{"compound": "Sulfolobus islandicus Csx1 I383A/L390D/R391A mutant (enzyme)", "values": [{"measurement": "stoichiometry N", "setting": "[2]", "value": 2}]}
{"compound": "Nc1ncnc2c1ncn2[C@@H]1O[C@@H]2COP(=O)(O)O[C@H]3[C@@H](O)[C@H](n4cnc5c(N)ncnc54)O[C@@H]3COP(=O)(O)O[C@H]3[C@@H](O)[C@H](n4cnc5c(N)ncnc54)O[C@@H]3COP(=O)(O)O[C@H]3[C@@H](O)[C@H](n4cnc5c(N)ncnc54)O[C@@H]3COP(=O)(O)O[C@H]2[C@H]1O", "note": "[cOA4]", "values": [{"measurement": "Kd", "setting": "[3]", "value": "~18", "unit": "nM"}, {"measurement": "fluorescent dark-RNA cleavage (activation dose response)", "setting": "[4]", "value": "cleavage of a ssRNA substrate was quantified in the presence of increasing amounts of cOA4"}]}
